Results taken from PMC8605023 (2021).

What was measured:
Test in all cases: FP
NTF2 domain of G3BP2 = target: T1, NTF2 domain of G3BP2 (human, UniProt Q9UN86 11-133)
T1 chain: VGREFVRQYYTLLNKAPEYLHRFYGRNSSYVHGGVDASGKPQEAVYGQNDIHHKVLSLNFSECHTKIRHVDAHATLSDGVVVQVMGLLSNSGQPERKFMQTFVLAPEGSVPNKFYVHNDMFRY

[1] = target: SARS-CoV NSP14 peptide with the YxxL motif, synthetic (SARS-CoV, UniProt P0C6X7)
[2] = target: SARS-CoV-2 NSP14 peptide with the YxxL motif, synthetic (SARS-CoV-2, UniProt P0DTD1)
[3] = target: MERS-CoV NSP14 peptide with the YxxL motif, synthetic (MERS-CoV, UniProt K9N7C7)
SARS-CoV E 1-16 = target: SARS-CoV E 1-16
[4] = target: SARS-CoV-2 NSP3 2019-2038
SARS-CoV NSP3 2019-2038 = target: SARS-CoV NSP3 2019-2038
SARS-CoV-2 E 1-16 = target: SARS-CoV-2 E 1-16
NTF2 domain of G3BP1 = NTF2 domain of G3BP1 (human, UniProt Q13283 11-133)
Sequence of NTF2 domain of G3BP1 (Q13283 11-133): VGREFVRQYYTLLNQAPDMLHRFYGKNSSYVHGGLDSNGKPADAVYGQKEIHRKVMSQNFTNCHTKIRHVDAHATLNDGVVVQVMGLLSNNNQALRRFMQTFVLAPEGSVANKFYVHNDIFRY

APRITFGGPSDSTGSN [SARS-CoV-2 N peptide with the ΦxFG motif, synthetic]
Kd (NTF2 domain of G3BP2): 2.8 µM

B1: clathrin coat adaptor protein AP2M1, tag removed (domain or fragment)
chain: RNELFLDVLESVNLLMSPQGQVLSAHVSGRVVMKSYLSGMPECKFGMNDKIVIEKQGKGTADETSKSGKQSIAIDDCTFHQCVRLSKFDSERSISFIPPDGEFELMRYRTTKDIILPFRVIPLVREVGRTKLEVKVVIKSNFKPSLLAQKIEVRIPTPLNTSGVQVICMKGKAKYKASENAIVWKIKRMAGMKESQISAEIELLPTNDKKKWARPPISMNFEVPFAPSGLKVRYLKVFEPKLNYSDHDVIKWVRYIGRSGIYETR
Kd [1]: 1.6 µM
Kd [2]: 1.6 µM
Kd [3]: 3 µM

B2: FERM domain of Radixin (domain or fragment)
chain: INVRVTTMDAELEFAIQPNTTGKQLFDQVVKTVGLREVWFFGLQYVDSKGYSTWLKLNKKVTQQDVKKENPLQFKFRAKFFPEDVSEELIQEITQRLFFLQVKEAILNDEIYCPPETAVLLASYAVQAKYGDYNKEIHKPGYLANDRLLPQRVLEQHKLTKEQWEERIQNWHEEHRGMLREDSMMEYLKIAQDLEMYGVNYFEIKNKKGTELWLGVDALGLNIYEHDDKLTPKIGFPWSEIRNISFNDKKFVIKPIDKKAPDFVFYAPRLRINKRILALCMGNHELYMRRR
Kd (SARS-CoV E 1-16): 11.9 µM
Kd [4]: 38 µM
Kd (SARS-CoV NSP3 2019-2038): 217 µM
Kd (SARS-CoV-2 E 1-16): 11.9 µM

APRAVSFADNNDITNT [MERS-CoV N peptide corresponding to the ΦxFG peptide, synthetic]
Kd (NTF2 domain of G3BP1): 51 µM
Kd (NTF2 domain of G3BP2): 26 µM

APRITFGGPTDSTDNN [SARS-CoV N peptide with the ΦxFG motif, synthetic]
Kd (NTF2 domain of G3BP1): 2.8 µM
Kd (NTF2 domain of G3BP2): 1.7 µM
